Where two headings read alike, the source gives them in different places.
B2: CD46-Fc (Fc fusion)
chain: CEEPPTFEAMELIGKPKPYYEIGERVDYKCKKGYFYIPPLATHTICDRNHTWLPVSDDACYRETCPYIRDPLNGQAVPANGTYEFGYQMHFICNEGYYLIGEEILYCELKGSVAIWSGKPPICEKVLCTPPPKIKNGKHTFSEVEVFEYLDAVTYSCDPAPGPDPFSLIGESTIYCGDNSVWSRAAPECKVVKCRFPVVENGKQISGFGKKFYYKATVMFECDKGFYLDGSDTIVCDSNSTWDPPVPKCLKVLPPSSTKPPALSHSVSTSSTTKSPASSASGPRPTYKPPVSNY
notes: range 35-328
B4: recombinant soluble MeV-H Δ8 (other)
chain: RLHRAAIYTAEIHKSLSTNLDVTNSIEHQVKDVLTPLFKIIGDEVGLRTPQRFTDLVKFISDKIKFLNPDREYDFRDLTWCINPPERIKLNYDQYCADVAAEELMNALVNSTLLETRTTNQFLAVSKGNCPGPTTIRGQFSNMSLSLLDLYLSRGYNVSSIVTMTSQGMYGGTYLVGKPDLNSKGSELSQPSMYRVFEVGVIRNPGLGAPVFHMTNYFEQPISKDLSNCMVALGELKLAALCHRGDSITIPCRGSGKGVSFQLVKLGVWKSPTDMHSWVPLSTDDPVIDRLYLSSHRGVITDNQANWAVPTTRTDDKLQKETCFQQACKGKIQALCENLEWAPLKDSRIPSYGVLSVNLSLAAEPKIKIASGFGPLITHGSGMDLYKSNHNNVYWLTIPPMKNLALGVINTLKWIPRLKVSPYLFTVPIEEADEDCRAPTYLPAEVTGDVKLSSNLVILPGQDLQYVLATYDTSGVEHAVVYYVYSPGGSFSYVYPFRLPIKGTPIELQVECFTWAQRLWCRHFCVLADSESGGHLTHSGMVGMEVSCTVNREDEANRR

Experiments:
[1] = molecular target: recombinant soluble MeV-H A (vaccine strain) (measles virus)
[2] = molecular target: recombinant soluble MeV-H A (vaccine strain) (measles virus); test: ELISA, receptor-Fc titrated on plastic-bound MeV-H; one-site fit, apparent Kd
[3] = molecular target: recombinant soluble MeV-H A (vaccine strain) (measles virus); test: ELISA, receptor-Fc titrated on plastic-bound MeV-H; one-site fit
[4] = molecular target: B4; test: ELISA, receptor-Fc titrated on plastic-bound MeV-H
[5] = molecular target: T1, SLAM-Fc (UniProt Q13291 21-237); test: ELISA, receptor-Fc titrated on plastic-bound MeV-H; one-site fit, apparent Kd
T1 sequence: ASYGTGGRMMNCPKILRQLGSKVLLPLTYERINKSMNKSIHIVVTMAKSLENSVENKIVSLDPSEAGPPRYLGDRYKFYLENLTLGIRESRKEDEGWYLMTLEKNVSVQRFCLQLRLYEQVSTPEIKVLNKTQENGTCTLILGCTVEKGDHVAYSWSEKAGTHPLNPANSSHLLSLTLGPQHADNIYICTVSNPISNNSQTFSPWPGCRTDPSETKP

[6] = molecular target: T1, SLAM-Fc; test: ELISA, receptor-Fc on plastic-bound MeV-H
[7] = molecular target: B2; test: ELISA, receptor-Fc titrated on plastic-bound MeV-H; one-site fit, apparent Kd (half-saturating concentration)

CD46-Fc (from UniProt P15529 35-328) (Fc fusion)
Kd [1]: 819 µM

nectin-4-Fc (from UniProt Q96NY8 32-349) (Fc fusion)
Bmax [1]: 1.56

B1: SLAM-Fc (Fc fusion)
chain: ASYGTGGRMMNCPKILRQLGSKVLLPLTYERINKSMNKSIHIVVTMAKSLENSVENKIVSLDPSEAGPPRYLGDRYKFYLENLTLGIRESRKEDEGWYLMTLEKNVSVQRFCLQLRLYEQVSTPEIKVLNKTQENGTCTLILGCTVEKGDHVAYSWSEKAGTHPLNPANSSHLLSLTLGPQHADNIYICTVSNPISNNSQTFSPWPGCRTDPSETKP
Kd [2]: 2680 nM
Bmax [3]: 2.09

B2
fold better binding than MeV-H A and H1 [4]: ~4000 fold

B3: recombinant soluble MeV-H H1 (other)
chain: RLHRAAIYTAEIHKSLSTNLDVTNSIEHQVKDVLTPLFKIIGDEVGLRTPQRFTDLVKFISDKIKFLNPDREYDFRDLTWCINPPERIKLNYDQYCADVAAEELMNALVNSTLLETRTTNQFLAVSKGNCSGPTTIRGQFSNMSLSLLDLYLSRGYNVSSIVTMTSQGMYGGTYLVEKPNLNSKGSELSQLSMYRVFEVGVIRNPGLGAPVFHMTNYFEQPISKDLSNCMVALGELKLAALCHGGDSITIPYQGSGKGVSFQLVKLGVWKSPTDMHSWVPLSTDDPVIDRLYLSSHRGVITDNQANWAVPTTRTDDKLRMETCFQQACKGKIQALCENLEWAPLKDSRIPSYGVLSVDLSLAAEPKIKIASGFGPLITHGSGMDLYKSNHNNVYWLTIPPMKNLALGVINTLEWIPRLKVSPNLFTVPIKEAGEDCHAPTYLPAEVDGDVKLSSNLVILPGQDLQYVLATYDTSRVEHAVVYYVYSPSRSFSYFYPFRLPIKGTPIELQVECFTWAQRLWCRHFCVLADSESGGHLTHSGMVGMEVSCTVNREDEANRR
Kd [5]: 10.4 µM

B4
binding result [6]: no binding
Kd [7]: 0.19 nM

Reference: patent US20220118080A1 (MAYO FOUNDATION FOR MEDICAL EDUCATION AND RESEARCH, published 2022)
